{"source": "patent US20140378374A1", "about": "“METHODS OF TREATMENT” (GlaxoSmithKline Intellectual Property (No.2) Limited, priority 2013, published 2014)", "key": {"[1]": {"assay": "Phase 1 single-dose (30 mg subcutaneous) pharmacokinetics and safety study in T2DM with normal or varying degrees of renal impairment", "type": "in vivo, human", "settings": "for AUC Ratio / Cmax Ratio: single 30 mg dose", "experimental": "A Phase 1, open-label, nonrandomized study evaluated the pharmacokinetics of a single 30 mg subcutaneous dose of albiglutide in subjects with T2DM and normal or varying degrees of renal impairment. Eligible subjects were men and women from 30 to 75 years of age (inclusive) with T2DM and HbA1c between ≧6.0% and ≦10.5%. […] Participants on hemodialysis were on stable treatment for at least 3 months before screening and had serum albumin ≧[…] and hemoglobin ≧8 g/dL.\nVenous blood samples for determination of albiglutide were drawn on Day 1 prior to dosing and 6 hours after dosing and on Days 2, 3, 5, 10, 14, 21, 29, and 42 after administration of albiglutide (30 mg subcutaneous). In subjects undergoing hemodialysis, Day 1 was planned to be the day before a scheduled hemodialysis day (Day 2). Following blood sampling on Day 1 (before dosing and 6 hours after dosing) blood samples were taken before and after each dialysis procedure over the next 7 weeks. For all subjects, each blood sample was about 3 mL and drawn into an EDTA collection tube, immediately placed on crushed ice and water, and centrifuged for 10 minutes at 1,500 g at 4° C. Approximately 1 mL of plasma was transferred to a sterile 1.8-mL tube (Nunc® CryoTube®, Sigma-Aldrich) and stored at −70° C. until assaying.\nAlbiglutide PK samples collected in participants undergoing hemodialysis also were analyzed to assess predialysis and postdialysis changes in albumin concentrations.\n(§1) Plasma samples were analyzed for albiglutide by using a validated enzyme-linked immunosorbent assay (ELISA) and were diluted 100-fold with sample buffer before analysis. Albiglutide was captured using a rabbit anti-human GLP-1 (7-36) amide and detected using a rabbit anti-HSA conjugated to biotin. ELISA experiments were performed using the Furoninc® 96 well plate (Nunc, cat. #437796) with the following steps. 1) 100 ml, antibody coating solution of 5.0 μg/mL anti-GLP-1 (7-36) Amide (human) IgG (Peninsula Laboratories, cat. # T-4111) in 50 mM sodium carbonate-bicarbonate buffer pH 9.4 was added to each well, sealed with aseptic sealing tape and incubated for 24 hours (±12 hours) at nominally 4° C. The microtiter plate was washed 5 times with […] wash buffer (10 mM Sodium Phosphate, 150 mM NaCl, 0.05% Tween 20, pH 7.5) using plate washer; 2) […] blocking buffer of SuperBlock in PBS (SuperBlock (Pierce, cat. #37515) in PBS, 5.0% Rabbit Plasma) was added to each well, sealed and incubated with constant shaking for approximately 1.5 hour (±30 minutes) at ambient room temperature and the microtiter plate washed; 3) 100 mL of either standards, quality controls (QCs) or samples were added per well, sealed, incubated and washed; 4) 100 mL of Detection Antibody solution of Biotin Labelled Rabbit polyclonal to Human Serum Albumin (NOVUS Biologicals, cat. # NB 100-1674) was added per well, sealed, incubated and washed; 5) 100 mL of Reporter Tag solution (Streptavidin-HRPO Conjugate, Caltag, cat. # SA1007) was added per well, sealed, incubated and washed; 6) 100 mL of Development Substrate Pico (SuperSignal ELISA, Pierce, cat. #37070) was added, incubated and the plate read using plate reader (Wallac 1420 Victor Multilabel Counter, Perkin Elmer Life Sciences, Boston, Mass.). Sample concentrations were determined by interpolation from the standard curve, which was fitted using a weighted (1/x), 4-parameter logistic equation. The validated range of this assay (based on 10 μL of human plasma) is 50 ng/mL to 1,500 ng/mL.\nDuring the single dose study and 3 of the phase 3 trials (Harmony 2, 4 and 5), the assay process was modified from manual pipetting of samples to robotic pipetting.\nPharmacokinetic calculations were based on actual sampling collection times. All statistical analyses of pharmacokinetic parameters were performed using SAS Version 9.1 or later (SAS Institute, Inc., Cary, N.C.). […]"}, "[2]": {"assay": "Population pharmacokinetics, Phase 3 pooled analysis", "type": "in vivo, human", "excerpt": "During each Phase 3 study, 4 blood samples for population pharmacokinetic evaluation were obtained. In the study of patients with CKD, 2 predose samples were obtained at weeks 8 and 16 and 2 postdose samples were obtained at least 2 days after dosing between weeks 8 and 10 and weeks 16 and 20. In the other 3 studies, 2 predose samples were obtained at weeks 8 and 24 and 2 postdose samples were obtained at least 2 days after dosing between weeks 8 and 10 and weeks 24 and 28. The blood collection and storage procedure were the same as described above.\nas §1, with “1) 100 ml, antibody coating solution of 5.0 μg/mL anti-GLP-1 (7-36) Amide (human) IgG (Peninsula Laboratories, cat. # T-4111) in 50 mM sodium carbonate-bicarbonate buffer pH 9.4 was added to each well, sealed with aseptic sealing tape and incubated for 24 hours (±12 hours) at nominally 4° C.” left out, “Sample concentrations were determined by interpolation from the standard curve, which was fitted using a weighted (1/x), 4-parameter logistic equation. The validated range of this assay (based on 10 μL of human plasma) is 50 ng/mL to 1,500 ng/mL.” left out"}}}
{"substance": "Albiglutide: recombinant fusion protein of 2 copies of modified human GLP-1 (fragment 7-36(A8G)) genetically fused in series to recombinant human serum albumin", "values": [{"measurement": "Any event", "setting": "[1]; Hemodialysis (n = 10)", "value": "8 (80) n (%)"}, {"measurement": "Dizziness", "setting": "[1]; Hemodialysis (n = 10)", "value": "2 (20) n (%)"}, {"measurement": "Fatigue", "setting": "[1]; Hemodialysis (n = 10)", "value": "2 (20) n (%)"}, {"measurement": "Headache", "setting": "[1]; Hemodialysis (n = 10)", "value": "3 (30) n (%)"}, {"measurement": "Hypoglycemia, Documented Symptomatic", "setting": "[1]; Hemodialysis (n = 10)", "value": "1 (10) n (%)"}, {"measurement": "Nausea", "setting": "[1]; Hemodialysis (n = 10)", "value": "5 (50) n (%)"}, {"measurement": "Total no. of events", "setting": "[1]; Hemodialysis (n = 10)", "value": 38, "unit": "n"}, {"measurement": "Vomiting", "setting": "[1]; Hemodialysis (n = 10)", "value": "5 (50) n (%)"}, {"measurement": "AUC Ratio", "setting": "[1]; Hemodialysis:Normal", "value": 0.99}, {"measurement": "Cmax Ratio", "setting": "[1]; Hemodialysis:Normal", "value": 1.11}, {"measurement": "AUC Ratio", "setting": "[1]; Hemodialysis:Normal, listed as albiglutide", "value": "0.99 (0.63, 1.57)"}, {"measurement": "Any event", "setting": "[1]; Moderate (n = 11)", "value": "3 (27.3) n (%)"}, {"measurement": "Dizziness", "setting": "[1]; Moderate (n = 11)", "value": "0 n (%)"}, {"measurement": "Fatigue", "setting": "[1]; Moderate (n = 11)", "value": "0 n (%)"}, {"measurement": "Headache", "setting": "[1]; Moderate (n = 11)", "value": "0 n (%)"}, {"measurement": "Hypoglycemia, Documented Symptomatic", "setting": "[1]; Moderate (n = 11)", "value": "0 n (%)"}, {"measurement": "Nausea", "setting": "[1]; Moderate (n = 11)", "value": "0 n (%)"}, {"measurement": "Total no. of events", "setting": "[1]; Moderate (n = 11)", "value": 4, "unit": "n"}, {"measurement": "Vomiting", "setting": "[1]; Moderate (n = 11)", "value": "0 n (%)"}, {"measurement": "AUC Ratio", "setting": "[1]; Moderate:Normal", "value": 1.32}, {"measurement": "Cmax Ratio", "setting": "[1]; Moderate:Normal", "value": 1.21}, {"measurement": "AUC Ratio", "setting": "[1]; Moderate:Normal, listed as albiglutide", "value": "1.32 (0.96, 1.80)"}, {"measurement": "Any event", "setting": "[1]; Normal (n = 10)", "value": "8 (80) n (%)"}, {"measurement": "Dizziness", "setting": "[1]; Normal (n = 10)", "value": "0 n (%)"}, {"measurement": "Fatigue", "setting": "[1]; Normal (n = 10)", "value": "0 n (%)"}, {"measurement": "Headache", "setting": "[1]; Normal (n = 10)", "value": "0 n (%)"}, {"measurement": "Hypoglycemia, Documented Symptomatic", "setting": "[1]; Normal (n = 10)", "value": "0 n (%)"}, {"measurement": "Nausea", "setting": "[1]; Normal (n = 10)", "value": "0 n (%)"}, {"measurement": "Total no. of events", "setting": "[1]; Normal (n = 10)", "value": 8, "unit": "n"}, {"measurement": "Vomiting", "setting": "[1]; Normal (n = 10)", "value": "0 n (%)"}, {"measurement": "Any event", "setting": "[1]; Severe (n = 10)", "value": "4 (40) n (%)"}, {"measurement": "Dizziness", "setting": "[1]; Severe (n = 10)", "value": "0 n (%)"}, {"measurement": "Fatigue", "setting": "[1]; Severe (n = 10)", "value": "0 n (%)"}, {"measurement": "Headache", "setting": "[1]; Severe (n = 10)", "value": "1 (10) n (%)"}, {"measurement": "Hypoglycemia, Documented Symptomatic", "setting": "[1]; Severe (n = 10)", "value": "2 (20) n (%)"}, {"measurement": "Nausea", "setting": "[1]; Severe (n = 10)", "value": "0 n (%)"}, {"measurement": "Total no. of events", "setting": "[1]; Severe (n = 10)", "value": 8, "unit": "n"}, {"measurement": "Vomiting", "setting": "[1]; Severe (n = 10)", "value": "0 n (%)"}, {"measurement": "AUC Ratio", "setting": "[1]; Severe:Normal", "value": 1.39}, {"measurement": "Cmax Ratio", "setting": "[1]; Severe:Normal", "value": 1.23}, {"measurement": "AUC Ratio", "setting": "[1]; Severe:Normal, listed as albiglutide", "value": "1.39 (1.03, 1.89)"}, {"measurement": "subjects with a hypoglycemic SAE", "setting": "[1]; hemodialysis group, insulin-treated subject", "value": "One"}, {"measurement": "half-life, geometric mean", "setting": "[1]; participants with impaired renal function", "value": "141 to 145", "unit": "h"}, {"measurement": "half-life, geometric mean", "setting": "[1]; participants with normal renal function", "value": 122, "unit": "h"}, {"measurement": "observed increase in AUC", "setting": "[1]; patients with severe renal impairment", "value": "30 to 40", "unit": "%"}, {"measurement": "median time of peak concentrations (Tmax)", "setting": "[1]; regardless of the level of renal impairment", "value": "88 to 96", "unit": "h"}, {"measurement": "apparent clearance CL/F, typical value of the final population PK model", "setting": "[2]; BW 90.7, eGFR 77.9, covariates body weight, eGFR, African heritage, insulin", "value": 66.6, "unit": "mL/h"}, {"measurement": "decrease in clearance vs eGFR around 80 mL/min/1.73 m2", "setting": "[2]; patient with eGFR of 50 mL/min/1.73 m2", "value": "about 9%"}, {"measurement": "decrease in clearance vs eGFR around 80 mL/min/1.73 m2", "setting": "[2]; typical patient with eGFR of 30 mL/min/1.73 m2", "value": "about 19%"}]}
